The results in this text go back to patent US20060281072A1 (CRUCELL HOLLAND B V, published 2006).

For assay [1], the target named is T1, human OX40-receptor (human, UniProt P43489 29-277).
T1 construct: whole, on cells; also called CD134; ACT-4
T1 sequence (looked up): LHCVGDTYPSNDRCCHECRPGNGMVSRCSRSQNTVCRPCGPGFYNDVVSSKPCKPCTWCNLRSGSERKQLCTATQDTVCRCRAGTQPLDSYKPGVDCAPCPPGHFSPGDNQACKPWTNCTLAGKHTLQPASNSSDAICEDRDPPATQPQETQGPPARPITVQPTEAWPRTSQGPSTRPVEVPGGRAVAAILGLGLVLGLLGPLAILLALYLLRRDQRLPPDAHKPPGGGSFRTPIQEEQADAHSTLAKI
As to the kind of experiment: flow cytometry on OX40-receptor transfected (filled) and mock-transfected (open) PER.C6 cells, anti-human IgG PE, IgG1 at 20 µg/ml. How it is done:
The anti-OX40 receptor IgG1 antibodies were validated for their ability to bind to PER.C6™ cells transfected with human OX40-receptor. To this purpose mock- and human OX40-receptor-transfected cells were stained with the IgG1 antibodies at a concentration of 20 μg/ml at 4° C. Binding of the antibodies called 008, 011, 021 and 023 was visualized using biotinylated goat-anti-human IgG (Fc specific, Caltag) followed by streptavidin-phyco-erythrin (Caltag). The stained cells were analyzed by flow cytometry.
For orientation: Flow cytometry measures light scatter and fluorescence of single cells or particles in a stream.

For assay [2], the target named is T2, human OX40-Ig fusion protein (human, UniProt P43489 29-214).
T2 construct: extracellular domain; Bought (Alexis Biochemicals); not shown: CH2 and CH3 domains of human IgG1
T2 sequence (looked up): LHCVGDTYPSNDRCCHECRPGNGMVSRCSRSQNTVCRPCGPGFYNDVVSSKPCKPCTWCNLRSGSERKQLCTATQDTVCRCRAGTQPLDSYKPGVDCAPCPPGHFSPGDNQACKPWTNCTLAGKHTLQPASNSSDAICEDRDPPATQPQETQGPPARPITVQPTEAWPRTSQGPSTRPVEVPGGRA
The assay can be described thus: phage ELISA on coated human OX40-Ig, anti-M13 peroxidase, absorbance at 492 nm. How it is done: Selected phage antibodies that were obtained in the screen described above, were validated in ELISA for specificity. For this purpose, human OX40-Ig was coated to Maxisorp™ ELISA plates. After coating, the plates were blocked in 2% MPBS. The selected phage antibodies were incubated in an equal volume of 4% MPBS. The plates are emptied, washed once in PBS, after which the blocked phages were added. Incubation was allowed to proceed for 1 hour, the plates were washed in PBS containing 0.1% Tween-20 and bound phages were detected using an anti-M13 antibody conjugated to peroxidase. As a control, the procedure was performed simultaneously using a control phage antibody directed against thyroglobulin (De Kruif et al. 1995a and 1995b), which served as a negative control.
A general note: In an ELISA, binding on a coated surface is turned into a signal by an enzyme label.

The target in assay [3] is T1, human OX40-receptor. The assay can be described thus: flow cytometry, mix of OX40-receptor transfected (green, PKH67) and control transfected PER.C6 cells, M13 anti-phage PE. How it is done:
In another assay the phage antibodies were analyzed for their ability to bind PER.C6™ cells that recombinantly express human OX40-receptor. To this purpose PER.C6™ cells were transfected with a plasmid carrying a cDNA sequence encoding human OX40-receptor or with the empty vector and stable transfectants were selected using standard techniques known to a person skilled in the art (Coligan et al., 2001). For flow cytometry analysis, phage antibodies were first blocked in an equal volume of 4% MPBS for 15 minutes at 4° C. prior to the staining of the OX40-receptor- and control transfected PER.C6™ cells. The blocked phages were added to a mixture of unlabelled control transfected PER.C6™ cells and OX40-receptor transfected PER.C6™ cells that were labelled green using a lipophylic dye (PKH67, Sigma). The binding of the phage antibodies to the cells was visualized using a biotinylated anti-M13 antibody (Santa Cruz Biotechnology) followed by streptavidin-phycoerythrin (Caltag).

The target of assay [4] is T1, human OX40-receptor. As to the kind of experiment: flow cytometry on tonsil mononuclear cells, M13 anti-phage PE against CD4 FITC.
The target of assay [5] is T1, human OX40-receptor. As to the kind of experiment: flow cytometry on tonsil mononuclear cells, M13 anti-phage APC against CD4 FITC. How it is done:
Inflamed tonsils were obtained from patients undergoing routine tonsillectomy. Tonsils were minced and the MNC fraction was isolated by density centrifugation. Flow cytometric analysis of the binding of the anti-OX40-receptor phage antibodies to the OX40+ CD4+ T-cells was performed as described above. The CD4+ T-cells were distinguished from total tonsil MNC using a FITC conjugated antibody against CD4. As shown in FIGS. 3A and 3B the selected anti-human OX40-receptor phage antibodies called SC02008, SC02009, SC02010, SC02011, SC02012 and SC02021 selectively stain a subset of CD4+ T-cells within tonsil and synovial fluid mononuclear cells respectively, while they display minor staining of peripheral blood CD4+ T-cells (FIG. 3C).

B1: human IgG1 antibody 023 (antibody, V domains shown)
VH: EVQLVESGGGLVHPGGSLRLSCAGSGFTFSSYAMHWVRQAPGKGLEWVSAIGTGGGTYYADSVMGRFTISRDNSKNTLYLQMNSLRAEDTAVYYCARYDNVMGLYWFDYWGQGTLVTVSS
VL: EIVLTQSPATLSLSPGERATLSCRASQSVSSYLAWYQQKPGQAPRLLIYDASNRATGIPARFSGSGSGTDFTLTISSLEPEDFAVYYCQQRSNWPPAFGGGTKVEIKR
notes: Human IgG1 made from scFv SC02023, expressed in PER.C6 cells; also called pgG102-023C01
B1: in the assay with human OX40-receptor [1], the binding result was “binds”.

B2: human IgG1 antibody 008 (antibody, V domains shown)
VH: EVQLVESGGGLVQPGGSLRLSCAASGFTFSNYTMNWVRQAPGKGLEWVSAISGSGGSTYYADSVKGRFTISRDNSKNTLYLQMNSLRAEDTAVYYCAKDRYSQVHYALDYWGQGTLVTVSS
VL: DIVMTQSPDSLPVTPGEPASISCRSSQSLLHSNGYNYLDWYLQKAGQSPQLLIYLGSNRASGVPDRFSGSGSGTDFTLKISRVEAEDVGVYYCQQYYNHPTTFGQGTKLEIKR
notes: Human IgG1 made from scFv SC02008, expressed in PER.C6 cells; also called pgG102-008C01
With B2, the binding result in the assay with human OX40-receptor [1] is “binds”.

B3: phage antibody SC02011 (scFv) (scFv)
scFv: MAEVQLVESGGGVVQPGRSLRLSCAASGFTFSDYTMNWVRQAPGKGLEWVSSISGGSTYYADSRKGRFTISRDNSKNTLYLQMNNLRAEDTAVYYCARDRYFRQQNAFDYWGQGTLVTVLEGTGGSGGTGSGTGTSELDIQMTQSPVTLPVTPGEPASISCRSSQSLLHSNGYNYLDWYLQKPGQSPQLLIYLGSNRASGVPDRFSGSGSGTDFTLKISRVEAEDVGVYYCQQYLTAPPTFGQGTKLEIKRAA
Turning to B3, the binding result (in assay [2]; with human OX40-receptor [3]) was “binds” each time.

B4: phage antibody SC02022 (scFv) (scFv)
scFv: MAEVQLVESGGGLVHPGGSLRLSCAGSGFTFSSYAMHWVRQAPGKGLEWVSAIGTGGGTYYADSVQGRFTISRDNAKNSLYLQMNSLRAEDTAVYYCARYDEPLTIYWFDSWGQGTLVTVSSGGGGSGGGGSGGGGSEIELTQSPATLSLSPGERATLSCRASQSVSSYLAWYQQKPGQAPRLLIYDASNRATGIPARFSGSGSGTDFTLTISSLEPEDFAVYYCQQRSNWPPAFGGGTKVEIKRAA
notes: selected on OX40+ CD4+ T-cells
B4: the binding result with human OX40-receptor [4] was “binds”.

B5: phage antibody SC02023 (scFv) (scFv)
scFv: MAEVQLVESGGGLVHPGGSLRLSCAGSGFTFSSYAMHWVRQAPGKGLEWVSAIGTGGGTYYADSVMGRFTISRDNSKNTLYLQMNSLRAEDTAVYYCARYDNVMGLYWFDYWGQGTLVTVSSGGGGSGGGGSGGGGSEIELTQSPATLSLSPGERATLSCRASQSVSSYLAWYQQKPGQAPRLLIYDASNRATGIPARFSGSGSGTDFTLTISSLEPEDFAVYYCQQRSNWPPAFGGGTKVEIKRAA
notes: as for B4
For the molecule B5, the binding result in the assay with human OX40-receptor [4] is given as “binds”.

B6: phage antibody SC02012 (scFv) (scFv)
scFv: MAEVQLVESGGGLVKPGGSLRLSCAASGFTFSNDSMNWMRQAPGKGLEWVANINQDGNEKYYADSVKGRFTISRDNSKNSLYLQMNSLRDEDTALYYCARARAAGTIFDYWGQGTLVTVLEGTGGSGGTGSGTGTSELDIQMTQSPSSLSASVGDRVTITCRASQNVSNYLTWYQQKPGKAGKLLIYAASSLQSGVPSRFSGSGSGTDFTLTISSLQPEDFATYYCQQSYFNPATFGQGTKLEIKRAA
Turning to B6, the binding result (in assay [2]; with human OX40-receptor [3]) was “binds” each time.

B7: human IgG1 antibody 021 (antibody, V domains shown)
VH: EVQLVESGGGLVQPRGSLRLSCAASGFTFSSYAMNWVRQAPGKGLEWVAVISYDGSNKYYADSVKGRFTISRDNSKNTLYLQMNSLRAEDTAVYYCAKDRYITLPNALDYWGQGTLVTVSS
VL: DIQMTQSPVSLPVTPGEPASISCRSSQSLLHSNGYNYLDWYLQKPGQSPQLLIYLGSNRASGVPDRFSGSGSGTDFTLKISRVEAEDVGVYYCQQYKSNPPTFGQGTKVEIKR
notes: Human IgG1 made from scFv SC02021, expressed in PER.C6 cells; also called pgG102-021C01
Regarding B7, the binding result with human OX40-receptor [1] is “binds”.

B8: human IgG1 antibody 011 (antibody, V domains shown)
VH: EVQLVESGGGVVQPGRSLRLSCAASGFTFSDYTMNWVRQAPGKGLEWVSSISGGSTYYADSRKGRFTISRDNSKNTLYLQMNNLRAEDTAVYYCARDRYFRQQNAFDYWGQGTLVTVSS
VL: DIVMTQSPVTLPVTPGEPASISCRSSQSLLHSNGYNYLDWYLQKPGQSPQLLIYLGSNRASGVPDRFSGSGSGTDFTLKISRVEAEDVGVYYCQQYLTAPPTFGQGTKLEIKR
notes: Human IgG1 made from scFv SC02011, expressed in PER.C6 cells; also called pgG102-011C01
In the case of B8, in the assay with human OX40-receptor [1], the binding result is “binds”.

B9: phage antibody SC02008 (scFv) (scFv)
scFv: MAEVQLVESGGGLVQPGGSLRLSCAASGFTFSNYTMNWVRQAPGKGLEWVSAISGSGGSTYYADSVKGRFTISRDNSKNTLYLQMNSLRAEDTAVYYCAKDRYSQVHYALDYWGQGTLVTVLEGTGGSGGTGSGTGTSELDIQMTQSPDSLPVTPGEPASISCRSSQSLLHSNGYNYLDWYLQKAGQSPQLLIYLGSNRASGVPDRFSGSGSGTDFTLKISRVEAEDVGVYYCQQYYNHPTTFGQGTKLEIKRAA
notes: the phage coat protein fusion is not described
Turning to B9, the binding result (with human OX40-receptor [5]; in assay [2]) was “binds” throughout.
